Measurements as given in article PMC11090809.

Biological target: empty AAVHSC-15 capsid (OXBS1-E fraction of AAV-OXBS1) (AAVHSC-15 (Clade F adeno-associated virus))
Assay: charge detection mass spectrometry (CDMS); OXBS1-E fraction sprayed into a CDMS instrument (Megadalton Solutions); single ions trapped, charge detected, masses calculated; n = 1

## empty AAVHSC-15 capsid (OXBS1-E fraction of AAV-OXBS1) (complex)
  % relative abundance of the dimer peak: 20%
  stoichiometry N: 2
